Where no end group is shown, it is not given here.
Assays:
Test in all cases: cell-based or functional assay
EDNRA = target: T1, EDNRA (UniProt P25101 21-427)
T1 sequence (looked up): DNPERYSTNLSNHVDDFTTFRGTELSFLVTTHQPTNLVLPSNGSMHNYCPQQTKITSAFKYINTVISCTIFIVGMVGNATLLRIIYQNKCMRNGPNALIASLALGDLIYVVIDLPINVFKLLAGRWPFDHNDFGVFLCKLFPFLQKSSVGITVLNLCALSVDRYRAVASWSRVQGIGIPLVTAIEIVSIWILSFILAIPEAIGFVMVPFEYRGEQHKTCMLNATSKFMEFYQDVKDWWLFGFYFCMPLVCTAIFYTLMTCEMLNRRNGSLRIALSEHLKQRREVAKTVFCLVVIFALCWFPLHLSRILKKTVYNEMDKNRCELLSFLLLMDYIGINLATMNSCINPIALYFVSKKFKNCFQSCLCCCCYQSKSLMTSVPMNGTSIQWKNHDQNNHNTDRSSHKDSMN

CNR1 = CNR1 (UniProt P21554 1-472)
CNR1, sequence (P21554 whole entry): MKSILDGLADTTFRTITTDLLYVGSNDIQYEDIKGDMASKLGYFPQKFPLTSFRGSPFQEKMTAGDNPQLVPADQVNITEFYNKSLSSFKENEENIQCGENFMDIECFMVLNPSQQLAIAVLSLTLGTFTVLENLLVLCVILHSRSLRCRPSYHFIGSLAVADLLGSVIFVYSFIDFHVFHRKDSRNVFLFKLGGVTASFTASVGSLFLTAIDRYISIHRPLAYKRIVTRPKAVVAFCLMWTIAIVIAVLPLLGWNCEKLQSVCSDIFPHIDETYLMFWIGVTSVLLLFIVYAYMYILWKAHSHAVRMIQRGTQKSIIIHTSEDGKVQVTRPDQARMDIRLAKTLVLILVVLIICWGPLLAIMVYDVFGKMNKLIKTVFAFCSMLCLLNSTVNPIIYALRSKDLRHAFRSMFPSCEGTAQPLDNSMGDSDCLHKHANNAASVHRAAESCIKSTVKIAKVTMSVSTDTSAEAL

GLP2R = target: T2, GLP2R (UniProt O95838 1-553, limits assumed)
T2 sequence (looked up): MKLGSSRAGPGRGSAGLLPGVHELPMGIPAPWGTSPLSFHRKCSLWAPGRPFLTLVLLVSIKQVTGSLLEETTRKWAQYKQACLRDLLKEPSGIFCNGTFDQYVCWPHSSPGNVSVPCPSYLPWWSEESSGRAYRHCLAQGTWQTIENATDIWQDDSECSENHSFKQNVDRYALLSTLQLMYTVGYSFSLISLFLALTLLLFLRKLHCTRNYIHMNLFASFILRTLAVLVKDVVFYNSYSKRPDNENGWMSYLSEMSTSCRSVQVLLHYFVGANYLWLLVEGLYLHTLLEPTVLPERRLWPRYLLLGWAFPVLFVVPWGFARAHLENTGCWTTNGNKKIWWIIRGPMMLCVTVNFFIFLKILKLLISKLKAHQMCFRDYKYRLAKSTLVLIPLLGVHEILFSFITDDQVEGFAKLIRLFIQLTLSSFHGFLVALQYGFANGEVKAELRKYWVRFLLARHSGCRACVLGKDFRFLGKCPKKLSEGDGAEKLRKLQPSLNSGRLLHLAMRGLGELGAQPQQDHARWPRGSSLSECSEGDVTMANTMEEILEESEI

FPRL1 = target: T3, FPRL1 (UniProt P25090 1-351)
T3 sequence (looked up): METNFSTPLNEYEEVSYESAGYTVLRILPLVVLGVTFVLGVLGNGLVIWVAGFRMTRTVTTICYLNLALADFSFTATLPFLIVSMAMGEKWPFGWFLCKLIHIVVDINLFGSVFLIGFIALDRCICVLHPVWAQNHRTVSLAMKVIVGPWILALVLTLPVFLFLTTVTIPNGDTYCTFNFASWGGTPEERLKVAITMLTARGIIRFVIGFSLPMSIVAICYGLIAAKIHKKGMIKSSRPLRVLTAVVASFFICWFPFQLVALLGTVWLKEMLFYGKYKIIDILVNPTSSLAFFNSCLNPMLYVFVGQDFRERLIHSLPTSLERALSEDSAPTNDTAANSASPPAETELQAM

PPYR1 = PPYR1 (UniProt P50391 1-375)
PPYR1, sequence (P50391 whole entry): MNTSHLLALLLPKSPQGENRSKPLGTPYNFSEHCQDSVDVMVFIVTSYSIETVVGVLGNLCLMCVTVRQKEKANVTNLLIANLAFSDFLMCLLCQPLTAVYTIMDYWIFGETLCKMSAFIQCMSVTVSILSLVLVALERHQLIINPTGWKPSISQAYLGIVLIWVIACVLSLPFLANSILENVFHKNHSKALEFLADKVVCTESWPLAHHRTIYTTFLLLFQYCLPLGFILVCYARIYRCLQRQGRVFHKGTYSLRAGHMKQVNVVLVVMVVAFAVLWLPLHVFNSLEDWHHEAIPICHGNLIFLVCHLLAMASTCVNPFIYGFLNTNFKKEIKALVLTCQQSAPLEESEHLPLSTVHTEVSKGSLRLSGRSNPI

CALCRL-RAMP3 = CALCRL-RAMP3 (UniProt Q16602 23-461; O60896 24-148)
CALCRL-RAMP3, sequence (Q16602 23-461 limits assumed, chain 1 of 2): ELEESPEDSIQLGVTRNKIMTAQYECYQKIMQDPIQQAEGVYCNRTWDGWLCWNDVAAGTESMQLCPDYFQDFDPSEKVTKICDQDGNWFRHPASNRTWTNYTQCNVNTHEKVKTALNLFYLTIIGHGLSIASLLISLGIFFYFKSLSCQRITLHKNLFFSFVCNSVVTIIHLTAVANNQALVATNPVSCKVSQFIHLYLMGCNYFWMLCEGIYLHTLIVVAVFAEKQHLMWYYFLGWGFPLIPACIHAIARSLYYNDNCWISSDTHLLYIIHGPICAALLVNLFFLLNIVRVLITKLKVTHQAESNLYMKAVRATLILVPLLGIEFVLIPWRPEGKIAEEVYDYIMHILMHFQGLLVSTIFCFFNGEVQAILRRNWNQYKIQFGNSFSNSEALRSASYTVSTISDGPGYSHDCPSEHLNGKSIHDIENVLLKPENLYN
CALCRL-RAMP3, sequence (O60896 24-148 limits assumed, chain 2 of 2): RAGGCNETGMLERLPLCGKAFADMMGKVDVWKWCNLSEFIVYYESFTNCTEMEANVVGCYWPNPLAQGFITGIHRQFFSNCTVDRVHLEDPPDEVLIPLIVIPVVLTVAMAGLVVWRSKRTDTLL

CHRM3 = CHRM3 (UniProt P20309 1-590)
CHRM3, sequence (P20309 whole entry): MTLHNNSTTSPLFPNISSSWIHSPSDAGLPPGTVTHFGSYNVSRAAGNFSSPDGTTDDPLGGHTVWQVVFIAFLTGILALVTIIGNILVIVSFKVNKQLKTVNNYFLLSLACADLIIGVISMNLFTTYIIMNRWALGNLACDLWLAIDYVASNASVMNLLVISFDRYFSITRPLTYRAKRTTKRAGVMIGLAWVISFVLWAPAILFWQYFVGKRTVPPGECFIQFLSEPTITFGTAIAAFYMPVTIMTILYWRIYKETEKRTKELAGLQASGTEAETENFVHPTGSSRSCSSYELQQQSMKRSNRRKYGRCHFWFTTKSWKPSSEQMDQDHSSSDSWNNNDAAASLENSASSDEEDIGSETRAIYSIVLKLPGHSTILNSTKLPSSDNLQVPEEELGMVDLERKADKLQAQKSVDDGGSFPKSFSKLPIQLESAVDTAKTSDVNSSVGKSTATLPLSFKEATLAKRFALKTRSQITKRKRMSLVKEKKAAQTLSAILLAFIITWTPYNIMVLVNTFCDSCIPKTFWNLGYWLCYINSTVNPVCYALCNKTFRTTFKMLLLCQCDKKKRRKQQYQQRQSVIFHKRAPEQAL

HRH1 = HRH1 (UniProt P35367 1-487)
HRH1, sequence (P35367 whole entry): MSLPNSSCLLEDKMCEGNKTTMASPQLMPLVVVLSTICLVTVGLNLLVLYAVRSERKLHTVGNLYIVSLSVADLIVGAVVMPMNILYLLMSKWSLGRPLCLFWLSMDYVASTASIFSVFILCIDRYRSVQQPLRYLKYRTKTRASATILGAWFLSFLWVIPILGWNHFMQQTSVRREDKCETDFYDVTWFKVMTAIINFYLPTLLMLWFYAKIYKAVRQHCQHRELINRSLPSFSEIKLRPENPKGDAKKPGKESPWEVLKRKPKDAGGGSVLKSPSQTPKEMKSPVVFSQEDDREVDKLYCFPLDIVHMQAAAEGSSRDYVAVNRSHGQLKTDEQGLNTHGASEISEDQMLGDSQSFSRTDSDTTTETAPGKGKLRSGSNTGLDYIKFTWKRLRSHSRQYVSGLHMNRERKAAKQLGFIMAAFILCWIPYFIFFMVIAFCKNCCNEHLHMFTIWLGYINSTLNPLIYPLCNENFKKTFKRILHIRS

CHRM4 = target: T4, CHRM4 (UniProt P08173 1-479)
T4 sequence (looked up): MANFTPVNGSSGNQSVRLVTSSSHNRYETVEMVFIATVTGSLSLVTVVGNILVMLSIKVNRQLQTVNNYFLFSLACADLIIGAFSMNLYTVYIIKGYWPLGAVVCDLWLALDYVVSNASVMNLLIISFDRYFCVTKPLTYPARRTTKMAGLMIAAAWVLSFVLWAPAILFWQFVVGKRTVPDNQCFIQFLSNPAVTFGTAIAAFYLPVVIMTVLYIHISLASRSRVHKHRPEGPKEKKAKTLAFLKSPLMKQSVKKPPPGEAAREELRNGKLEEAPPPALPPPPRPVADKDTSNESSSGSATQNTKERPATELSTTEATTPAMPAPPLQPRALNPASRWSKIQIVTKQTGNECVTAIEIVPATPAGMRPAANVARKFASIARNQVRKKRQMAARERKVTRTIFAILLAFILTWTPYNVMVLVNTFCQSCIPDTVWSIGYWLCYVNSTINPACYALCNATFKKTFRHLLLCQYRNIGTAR

SCTR = SCTR (UniProt P47872 23-440)
SCTR, sequence (P47872 23-440 limits assumed): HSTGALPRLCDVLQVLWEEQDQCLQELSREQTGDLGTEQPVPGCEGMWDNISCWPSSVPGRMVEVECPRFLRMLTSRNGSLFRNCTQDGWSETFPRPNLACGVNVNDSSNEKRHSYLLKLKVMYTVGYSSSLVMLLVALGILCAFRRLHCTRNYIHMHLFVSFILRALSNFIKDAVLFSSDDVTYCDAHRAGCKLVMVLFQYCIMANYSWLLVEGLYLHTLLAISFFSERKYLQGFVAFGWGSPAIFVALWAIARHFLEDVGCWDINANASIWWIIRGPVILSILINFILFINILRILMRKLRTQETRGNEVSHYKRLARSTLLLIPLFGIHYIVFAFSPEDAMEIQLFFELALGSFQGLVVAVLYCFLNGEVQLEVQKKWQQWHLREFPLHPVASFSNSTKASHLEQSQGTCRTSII

HTR1A = target: T5, HTR1A (UniProt P08908 1-422)
T5 sequence (looked up): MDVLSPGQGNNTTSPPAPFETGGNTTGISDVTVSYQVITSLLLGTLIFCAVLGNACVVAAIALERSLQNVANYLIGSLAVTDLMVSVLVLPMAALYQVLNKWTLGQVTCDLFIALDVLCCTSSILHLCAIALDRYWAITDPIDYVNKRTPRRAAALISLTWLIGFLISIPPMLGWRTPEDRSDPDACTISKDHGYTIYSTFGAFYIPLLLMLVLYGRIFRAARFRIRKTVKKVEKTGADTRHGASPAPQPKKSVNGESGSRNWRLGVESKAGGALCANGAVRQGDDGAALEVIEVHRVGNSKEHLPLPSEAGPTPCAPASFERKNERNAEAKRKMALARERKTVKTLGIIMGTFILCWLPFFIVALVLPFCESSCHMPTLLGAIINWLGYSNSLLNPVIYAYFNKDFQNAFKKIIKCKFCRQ

CALCR-RAMP2 = CALCR-RAMP2 (UniProt P30988 25-474; O60895 43-175, limits assumed)
CALCR-RAMP2, sequence (P30988 25-474 limits assumed, chain 1 of 2): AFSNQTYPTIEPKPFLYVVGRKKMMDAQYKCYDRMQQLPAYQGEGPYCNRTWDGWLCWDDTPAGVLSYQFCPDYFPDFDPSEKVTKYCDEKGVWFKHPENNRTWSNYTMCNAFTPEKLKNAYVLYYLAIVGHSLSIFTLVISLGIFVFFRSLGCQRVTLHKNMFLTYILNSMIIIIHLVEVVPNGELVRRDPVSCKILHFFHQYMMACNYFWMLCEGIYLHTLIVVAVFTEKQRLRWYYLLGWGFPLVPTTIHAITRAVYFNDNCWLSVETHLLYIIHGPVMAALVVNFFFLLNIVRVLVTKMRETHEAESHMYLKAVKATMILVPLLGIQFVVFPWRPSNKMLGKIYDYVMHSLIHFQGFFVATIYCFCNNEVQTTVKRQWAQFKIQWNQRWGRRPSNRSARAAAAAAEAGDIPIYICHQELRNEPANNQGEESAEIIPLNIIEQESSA
CALCR-RAMP2, sequence (O60895 43-175 limits assumed, chain 2 of 2): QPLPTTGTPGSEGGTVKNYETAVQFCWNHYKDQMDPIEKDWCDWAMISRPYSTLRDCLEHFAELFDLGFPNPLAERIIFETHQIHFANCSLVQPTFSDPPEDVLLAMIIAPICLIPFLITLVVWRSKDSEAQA

P2RY6 = P2RY6 (UniProt Q15077 1-328)
P2RY6, sequence (Q15077 whole entry): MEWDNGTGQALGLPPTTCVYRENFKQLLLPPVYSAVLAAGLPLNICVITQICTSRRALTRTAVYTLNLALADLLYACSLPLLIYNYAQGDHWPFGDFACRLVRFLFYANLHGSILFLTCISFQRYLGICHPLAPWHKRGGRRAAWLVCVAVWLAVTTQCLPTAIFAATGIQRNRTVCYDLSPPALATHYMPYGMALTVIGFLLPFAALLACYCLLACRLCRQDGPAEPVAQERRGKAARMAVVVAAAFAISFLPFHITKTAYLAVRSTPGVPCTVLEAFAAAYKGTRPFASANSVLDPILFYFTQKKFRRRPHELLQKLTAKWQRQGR

DRD2S = DRD2S (UniProt P14416-2 1-414)
DRD2S, sequence (P14416 other isoform, or with tags, fused parts or gaps limits assumed): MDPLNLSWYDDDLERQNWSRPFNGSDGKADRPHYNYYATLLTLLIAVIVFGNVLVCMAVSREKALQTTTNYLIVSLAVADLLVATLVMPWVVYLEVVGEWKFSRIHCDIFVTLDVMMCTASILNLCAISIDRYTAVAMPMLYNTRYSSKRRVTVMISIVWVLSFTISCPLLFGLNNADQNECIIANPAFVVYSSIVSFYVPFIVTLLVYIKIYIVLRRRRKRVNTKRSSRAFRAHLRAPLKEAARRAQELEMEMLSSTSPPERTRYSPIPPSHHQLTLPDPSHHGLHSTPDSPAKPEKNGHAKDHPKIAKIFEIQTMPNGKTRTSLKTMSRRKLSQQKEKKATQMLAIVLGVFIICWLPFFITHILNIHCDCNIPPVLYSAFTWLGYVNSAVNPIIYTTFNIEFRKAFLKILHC

LTB4R = LTB4R (UniProt Q15722 1-352)
LTB4R, sequence (Q15722 whole entry): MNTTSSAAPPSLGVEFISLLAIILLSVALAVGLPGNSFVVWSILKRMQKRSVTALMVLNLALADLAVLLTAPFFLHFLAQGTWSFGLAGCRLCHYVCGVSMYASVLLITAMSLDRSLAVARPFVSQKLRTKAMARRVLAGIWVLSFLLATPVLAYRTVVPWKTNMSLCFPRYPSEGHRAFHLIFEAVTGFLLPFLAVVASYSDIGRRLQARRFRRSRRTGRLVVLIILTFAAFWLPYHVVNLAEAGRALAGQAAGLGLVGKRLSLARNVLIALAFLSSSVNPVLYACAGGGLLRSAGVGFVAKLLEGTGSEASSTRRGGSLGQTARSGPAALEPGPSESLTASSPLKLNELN

With QATVGDVNTDRPGLLDLK (also: synthesised on Rink amide resin, C-terminal amide not given here outright) [octadecaneuropeptide (ODN)] the “% Activity, arrestin, antagonist mode, 2.5 uM” value (“% Activity, arrestin” for short) (EDNRA) was 2.5%, the “% Activity, arrestin” value (CNR1) was -37.5% and the “% Activity, arrestin” value (GLP2R) was -15.4%. For the same binder, the “% Activity, arrestin” value (FPRL1) was -17.7%, the “% Activity, arrestin” value (PPYR1) was -11.4% and the “% Activity, arrestin” value (CALCRL-RAMP3) was -3.5%. The “% Activity, arrestin” value (CHRM3) was 12.6%, the “% Activity, arrestin” value (HRH1) was -38.5% and the “% Activity, arrestin” value (CHRM4) was 5.8%. The “% Activity, arrestin” value (SCTR) was 7.7%, the “% Activity, arrestin” value (HTR1A) was -6.2% and the “% Activity, arrestin” value (CALCR-RAMP2) was -17.8%. The “% Activity, arrestin” value (P2RY6) was -15.1%, the “% Activity, arrestin” value (DRD2S) was -13.4% and the “% Activity, arrestin” value (LTB4R) was 10.3%.

Source: patent US20260184748A1 (University of Pennsylvania, published 2026)
